From US20160159862A1 (PROTAGONIST THERAPEUTICS, published 2016)
Numbered stars: 1 amine (or outer) side, 2 acyl side, 3 side chain; on linkers, the order of the positions; unused ones are H or OH. Bridge positions count the residues as written; N and C are the ends. Square brackets hold non-standard residues; d marks the D form. Ends that are not written are not given here. Phe(4-OMe) = COc1ccc(C[C@H](N[*:1])C(=O)[*:2])cc1; Phe(4-COOH) = N[C@@H](Cc1ccc(C(=O)O)cc1)C(=O)O; Phe(4-tBu) = CC(C)(C)c1ccc(C[C@H](N)C(=O)O)cc1; Phe(2-CONH2) = NC(=O)c1ccccc1C[C@H](N)C(=O)O; Phe(4-F) = N[C@@H](Cc1ccc(F)cc1)C(=O)O; 2Nal = N[C@@H](Cc1ccc2ccccc2c1)C(=O)O; Diglycolyl = O=C(COCC(=O)[*:2])[*:1]; NMeR = CN[C@@H](CCCNC(=N)N)C(=O)O; Tic = O=C(O)[C@@H]1Cc2ccccc2CN1; Cit = NC(=O)NCCC[C@H](N)C(=O)O; Pen = CC(C)(S)[C@H](N)C(=O)O; Dab = NCC[C@H](N)C(=O)O; Dap = NC[C@H](N)C(=O)O

B1: SEQ ID NO 6 (peptide)
peptide: Diglycolyl-C[NMeR]SDTLCW-NH2
modifications: disulfide 1-7 (inferred); not fully specified; printed as DIG-NH2-C-(N-Me-R)-S-D-T-L-C-W-NH2
B2: SEQ ID NO 7 (peptide)
peptide: [Pen][NMeR]SDTL[Pen][dF]-NH2
modifications: disulfide 1-7 (inferred); not fully specified (N-terminus); printed as DIG-NH2-Pen-(N-Me-R)-S-D-T-L-Pen-f-NH2, disulfide; also: DIG-NH2 at N-terminus, probably DIG-linked dimer
B3: SEQ ID NO 5 (peptide)
peptide: Ac-[dK]C[NMeR]SDTLCW[dK]-NH2
modifications: disulfide 2-8 (inferred); not fully specified; printed as DIG-(Ac-k-C-(N-Me-R)-S-D-T-L-C-W-k-NH2)2-DIG
B4: SEQ ID NO 64 (peptide)
peptide: Ac-[Pen][NMeR]SDTL[Pen]W[dE][Dab]
modifications: disulfide 1-7 (inferred); not fully specified (residue 10); printed as Ac-Pen-(N-Me-R)-S-D-T-L-Pen-W-e-Dab-Ac
B5: SEQ ID NO 66 (peptide)
peptide: Ac-[Pen][NMeR]SDTL[Pen]W[dE][dK]
modifications: disulfide 1-7 (inferred); not fully specified (residue 10); printed as Ac-Pen-(N-Me-R)-S-D-T-L-Pen-W-e-k-Ac
B6: SEQ ID NO 65 (peptide)
peptide: Ac-[Pen][NMeR]SDTL[Pen]WE[dK]
modifications: disulfide 1-7 (inferred); not fully specified (residue 10); printed as Ac-Pen-(N-Me-R)-S-D-T-L-Pen-W-E-k-Ac

target: α4β7 integrin on human cells (human, UniProt P13612 34-1032; P26010 20-798); assay: cell-based or functional assay

α4β7 cell (Hu) IC50, > 100 nM:
Ac-[Pen][NMeR]SDTL[Pen][Phe(3-carbamoyl)][dE][dK]-NH2 (disulfide 1-7 (inferred); also: homodimer linked by DIG) [SEQ ID NO 99]
Ac-[Pen][NMeR]SDTL[Pen]WPK-NH2 (disulfide 1-7 (inferred); also: homodimer linked by DIG) [SEQ ID NO 95]
XRSDTLXWK ((Ac-Pen-(N-Me-R)-S-D-T-L-Pen-W-(N-Me-K)-NH2)2-DIG; disulfide) [SEQ ID NO 77]
Ac-[Pen][NMeR]SDTL[Pen]W[dF][dK]-NH2 (disulfide 1-7 (inferred); also: homodimer linked by DIG) [SEQ ID NO 91]
Ac-[Pen][NMeR]SDTL[Pen]W[dH][dK]-NH2 (disulfide 1-7 (inferred); also: dimer via DIG) [SEQ ID NO 104]
Ac-[Pen][NMeR]SDTL[Pen][Phe(3,4-Cl)][dE][dK]-NH2 (disulfide 1-7 (inferred); also: dimer via DIG) [SEQ ID NO 102]
Ac-[Pen][NMeR]SDTL[Pen]WP[dK]-NH2 (disulfide 1-7 (inferred); also: homodimer linked by DIG) [SEQ ID NO 94]

α4β7 cell (Hu) IC50, > 50 nM:
B1
Ac-[Pen][NMeR]SDTL[Pen]W[Phe(4-COOH)][dK]-NH2 (disulfide 1-7 (inferred); also: dimer via DIG) [SEQ ID NO 105]
Ac-[Pen][NMeR]SDTL[Pen]WN[dK]-NH2 (disulfide 1-7 (inferred); also: homodimer linked by DIG) [SEQ ID NO 83]
B3
Ac-[Pen][NMeR]SDTL[Pen]W[dP]K-NH2 (disulfide 1-7 (inferred); also: homodimer linked by DIG) [SEQ ID NO 96]
Ac-[Pen][NMeR]SDTL[Pen]W[dY][dK]-NH2 (disulfide 1-7 (inferred); also: homodimer linked by DIG) [SEQ ID NO 92]
Ac-[Pen][NMeR]SDTL[Pen][Phe(2,4-Cl)][dE][dK]-NH2 (disulfide 1-7 (inferred); also: dimer via DIG) [SEQ ID NO 101]
Ac-[Pen][NMeR]SDTL[Pen]WQ[dK]-NH2 (disulfide 1-7 (inferred); also: homodimer linked by DIG) [SEQ ID NO 82]
Ac-[Pen][NMeR]SDTL[Pen][Phe(2-CONH2)][dE][dK]-NH2 (disulfide 1-7 (inferred); also: homodimer linked by DIG) [SEQ ID NO 98]
Ac-[Pen][NMeR]SDTL[Pen][Tic][dE][dK]-NH2 (disulfide 1-7 (inferred); also: homodimer linked by DIG) [SEQ ID NO 80]
Ac-[Pen][NMeR]SDTL[Pen][2Nal]E-NH2 (disulfide 1-7 (inferred)) [SEQ ID NO 75]

α4β7 cell (Hu) IC50, > 1000 nM:
Ac-[Pen][NMeR]SDTL[Pen]W[dE][Dap] (disulfide 1-7 (inferred); also: Ac written after C-terminal Dap, place unclear) [SEQ ID NO 63]
B2
B4

α4β7 cell (Hu) IC50, ≤ 10 nM:
Ac-[Pen][NMeR]SDTL[Pen][Phe(4-tBu)][dE][dK]-NH2 (disulfide 1-7 (inferred); also: dimer via DIG) [SEQ ID NO 106]
Ac-[Pen][NMeR]SDTL[Pen]WF[dK]-NH2 (disulfide 1-7 (inferred); also: homodimer linked by DIG) [SEQ ID NO 85]
Ac-[Pen][NMeR]SDTL[Pen]WE[Dab]-NH2 (disulfide 1-7 (inferred); also: homodimer linked by DIG) [SEQ ID NO 97]
Ac-[Pen][NMeR]SDTL[Pen][Phe(4-COOH)][dE][dK]-NH2 (disulfide 1-7 (inferred); also: dimer via DIG) [SEQ ID NO 100]

α4β7 cell (Hu) IC50, > 10000 nM:
B5
B6

α4β7 cell (Hu) IC50, > 25 nM:
Ac-[Pen][NMeR]SDTL[Pen]WD[dK]-NH2 (disulfide 1-7 (inferred); also: homodimer linked by DIG) [SEQ ID NO 87]
Ac-[Pen][NMeR]SDTL[Pen]W[dE][dK]-NH2 (disulfide 1-7 (inferred); also: homodimer linked by IDA, IDA-Biotine) [SEQ ID NO 71]
Ac-[Pen][NMeR]SDTL[Pen]W[dE][dK]-NH2 (disulfide 1-7 (inferred); also: homodimer linked by IDA) [SEQ ID NO 70]
Ac-[Pen][NMeR]SDTL[Pen][Phe(4-F)][dE][dK]-NH2 (disulfide 1-7 (inferred); also: dimer via DIG) [SEQ ID NO 107]
Ac-[Pen][NMeR]SDTL[Pen][Phe(4-OMe)][dE][dK]-NH2 (disulfide 1-7 (inferred); also: dimer via DIG) [SEQ ID NO 103]
Ac-[Pen][NMeR]SDTL[Pen]W[dE][dK]-NH2 (disulfide 1-7 (inferred); also: homodimer linked by IDA, IDA-PEG4-Biotine) [SEQ ID NO 72]

α4β7 cell (Hu) IC50, > 500 nM:
Ac-[Pen][NMeR]SDTLC[Tic][dE][dK]-NH2 (disulfide 1-7 (inferred); also: homodimer linked by DIG) [SEQ ID NO 93]

α4β7 cell (Hu) IC50, > 10 nM:
Ac-[Pen][NMeR]SDTL[Pen]W[Cit][dK]-NH2 (disulfide 1-7 (inferred); also: homodimer linked by DIG) [SEQ ID NO 84]
XRSDTLXWK ((Ac-Pen-(N-Me-R)-S-D-T-L-Pen-W-k-OH)2-DIG; disulfide) [SEQ ID NO 76]
